The nanobody polyreactivity screen of Harvey et al. (2022)

Test: yeast display, Sf9 membrane polyspecificity reagent, FACS + sequencing; frameworks hold sequencing errors
In short: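 Galactose-induced (36–48 hours) yeast carrying a synthetic nanobody display library were exposed to 10% biotinylated, detergent-solubilized Sf9 membrane reagent at 4 °C for 1 hour. FACS followed streptavidin microbead enrichment, using low and high (top ~1%) gates for expression (anti-HA) and reagent binding (streptavidin). Colony PCR, MiSeq 2 × 250 sequencing and CDR-length filtering followed. Labels for polyreactivity reflect the gate of origin.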

Sequence	polyreactivity (PSR sort gate)
QVQLVESGGGLVQAGGSLRLSCAASGLIFSSNAMGWARQAPGKEREWVAAITSGGSTNYADSVKGRFTISRDNAHNTVYLQMNSLKPEDTAVYYCNAVSPHYFGGSYDYWGQGTQVTVSS	low polyreactivity
QVQLVESGGGLVQAGGSLRLSCAASGLIFSSNAMGWYRQAPGKERELVATISWSGGSTYYADSVKGRFTISRDNAKNTVYLQMNSLKPEDTAVYYCCWSALNGYDYWGQGTQVTVSS	high polyreactivity
QVQLVESGGGLVQAGGSLRLSCAASGLIFSSYAMGWYSQAPGKERELVAAITSGGNTNYADSVKGRFTISRDNAKNTVYLHMNSLKPEDTAVYYCSAVWWTYVAAPGYDYWGQGTQVTVSS	low polyreactivity
QVQLVESGGGLVQAGGSLRLSCAASGLIFSSYPKGWYRQAPGKEWVLVAAITRTGGDTYYADSVKGRFTISRDNAQNSFYLQMNSLKPEDTAVYYCSSSGPQYYSRNFDYWGQGTQVTVSS	low polyreactivity
QVQLVESGGGLVQAGGSLRLSCAASGLIFSTYDMGWYRQAPGKDRELVAAISTGGSTYCADSVKGRFTMSRDNAKYTVYLQMNSLKPEDTAVYYCAAGYTYHSWPLYYWDYNYWGQGTQVTVSS	low polyreactivity
QVQLVESGGGLVQAGGSLRLSCAASGLIFSVYAMGWYRQAPGKERELVARISINGGSTYYADSVKGRFTISRDNAKNTVYLQMNSLKPEDTAVYYCNAVRITHYVRYYYWGQGTQVTVSS	high polyreactivity
QVQLVESGGGLVQAGGSLRLSCAASGLIFSYNAMGWYRQAPGKERELVAAISANGGRTYYADSVKGRFTISRDNAKNTVSLQMNSLKPEDTAVYYCAAQGSRKLFYTDSGYWGQGTQVSVSS	high polyreactivity
QVQLVESGGGLVQAGGSLRLSCAASGLIFTGYAMGWYRQAPGKERELVAAITSGGGTNYADSVKGRFTISRDNAKNTVYLQMNSLKPEDTAVYYCAVDFGHYYLYSITSYLWYWDGYDYWGQGTQVTVSS	low polyreactivity
QVQLVESGGGLVQAGGSLRLSCAASGLIFTKAMGWYRQAPGKEREFVAAINSSGGSTYADSVKGRFTISRDNAKNTVYLQMNSLKPEDTAVYYCAARVNYLYEYWGQGTQVTVSS	low polyreactivity
QVQLVESGGGLVQAGGSLRLSCAASGLIFTPYAMGWYRQAPGKERELVAAINYGGSRTYYADSVKGRFTISRDNAKNTVYLQMNSLKPEDTAVYYCNVVKRSFRYDYWGEGTQVTVSS	high polyreactivity
QVQLVESGGGLVQAGGSLRLSCAASGLIFTSYAMGWYRQAPGKERELVAAISYSGGTTIYADSVKGRFTISRDYAKNTVYLQMNSVKPEDTAVYYCAADSLSTTHDTLGYDRDDYWGQGSQVTVSS	low polyreactivity
QVQLVESGGGLVQAGGSLRLSCAASGLIFTYYAMGWYRQAPGKERELVAAINWSGGSTYYADSVKGRFTISRDNAKNTVYLQMNSLKPEDTAVYYCAAAYANYRFYYWGQGTQVTVSS	high polyreactivity
QVQLVESGGGLVQAGGSLRLSCAASGLIFVGYAMGWYRQAPGTERELVAAITSGGSTNYADSVKGRFTISRDNAKNTVYLQMNSLKPEDTAVYYCAASDAIPLRYDYWGQGTQVTVSS	low polyreactivity
QVQLVESGGGLVQAGGSLRLSCAASGLIFVHYAMGWYRQAPGKERELVAAISAGGGSTYYADSVKGRFTISRDNAKNTVYLQMNSLKPEDTAVYYCNARVVNYFRPRTGAREYDYWGQGTQVTVSS	high polyreactivity
QVQLVESGGGLVQAGGSLRLSCAASGLIFVINAMGWYRQAPGKERELVATISSGVSTNYADSVKGRFTISRDNAKNTVYLQMNSLKPEDTAVYYCNAPEITYYYAPWETKIYDYWGQGTQVTVSS	low polyreactivity
QVQLVESGGGLVQAGGSLRLSCAASGLIFVSYAMGWYRQAPGKERELVASITDSDSSTYYADSVKGRFTISRDNAKNTVYLQMNSLKPEDTAVYYCATGGRTEIWYPTLDYWGQGTQVTVSS	low polyreactivity
QVQLVESGGGLVQAGGSLRLSCAASGLIFVTNAMGWYRQAPGKERELVAAITRSGGSTYYADSVKGRFTISRDNAKITVYLQMNSLKPEDTAVYYCATGFHYAYGYCGQGTQVTVSS	low polyreactivity
QVQLVESGGGLVQAGGSLRLSCAASGLIFVVYVMGWYRQAPGKERQLVAAMYGSGDSTYYADSVKGRFTISRDNAKNSVSLKMNSLKPEDTAVYSCAAKAFISDGYWYGYWGQGTQVTVSS	high polyreactivity
QVQLVESGGGLVQAGGSLRLSCAASGLIFWGYTMGWYRPAPGKERELVASITTSGSTYYADSVKGRFTISRDNAKNTVYLQMNSLKPEDTAVYYCAVDNYYTPWYPYLGYDSWGQGTQVTVSS	low polyreactivity
QVQLVESGGGLVQAGGSLRLSCAASGLIFWRYDMGWYRQAPGKERELVAVITSGGNTYYADAVKGRFRISRDNAKNTVYLQMNSLKPEDTAVYYCNADTWRDDYDYWGQGTQVTVAS	low polyreactivity
QVQLVESGGGLVQAGGSLRLSCAASGLIFWYYTMGWYRQAPGKERELVAAITIGGSTYYADSVKGRFTISRDNAKNTVYLQMNSLKPEDTAVYYCNTRRGRSQGGRYEYDYWGQGTQVTVSS	low polyreactivity
QVQLVESGGGLVQAGGSLRLSCAASGLIFYAYAMGWYRPAPGKERELVAAITSGSGTNYADSVKGRFTISRDNAKNTVYLQMNSLKPEDTAVYYCNAETYGLVPYYIYHYDFDYWGQVTQVTVSS	high polyreactivity

Sequence	polyreactivity (PSR sort gate)
QVQLVESGGGLVQAGGSLRLSCAASGLIFYAYYMGWYRQAPGKERELVAAISYSGGSTYYADSVKGRFTISRDNAKNTVYLQMNSLKPEDTSVYYCAADDGISTYEYWGQGTQVTVSS	high polyreactivity
QVQLVESGGGLVQAGGSLRLSCAASGLIFYDNMGWYRQAPGKERELVAAISSSGGSTSYADSVKGRFTISRDNAKNTVYFLMNSLKPEDTAVYYCAADQYYYWYTHQSIGYDYWGQGTQVTVSS	low polyreactivity
QVQLVESGGGLVQAGGSLRLSCAASGLIFYFNGMGLYRQAPGKERELVASISASGDRTYYADSVKGRFTISRDNAKNTVYLQMNSLKQEDTAVYYCATDANTYTKYDYWGQGTQVSVSS	low polyreactivity
QVQLVESGGGLVQAGGSLRLSCAASGLIFYGNAMGWYRQAPGKERELVADITGSSVRTYSADSVKGRFTISRDNAKNTVYVQMNSLNRKIPRSITALNVSCTSVVVGYDYWGQGTQVTVSS	low polyreactivity
QVQLVESGGGLVQAGGSLRLSCAASGLIFYGNAMGWYRQSPGKDRELVAAISRRGGRTYYADSVKGRFTISRDNAENTVYLQMNSLKPEDTAVYYCSAQYSYPYYKVTLYYWGQGTQVTVSS	high polyreactivity
QVQLVESGGGLVQAGGSLRLSCAASGLIFYINAMGWYRQAPGKERELVASITRTGSTNYADSVKGRFTISRDNAKNTVYLQMNSLKAEDTAVYYCAAYGPVYPHEYDYWGQGTQVTVSS	low polyreactivity
QVQLVESGGGLVQAGGSLRLSCAASGLIFYLYAMGWYRQAPGKERELVAAFTYSGGSTRYADSVKGRFTISRDNAKNTVYLQMNSLKPEDTAVYYCNADGTAPTEMDYWGQGTQVTVSS	low polyreactivity
QVQLVESGGGLVQAGGSLRLSCAASGLIFYNYAMGWYRQAPGKERELVAAISRSGGRTYYADSVKGRFTISRDNAKNTVYLQMNSLKPEDTAVYYCNAVHVSIEGYYWGQGTQVTVSS	high polyreactivity
QVQLVESGGGLVQAGGSLRLSCAASGLIFYPYAMGWSRQAPGKEREFVAAITWSGGSTRYADSVKGRFTISRDNAKNTVYLQMNSLNPEDTAVYYCAAAYKWTYYWGQGTQVTVSS	high polyreactivity
QVQLVESGGGLVQAGGSLRLSCAASGLIFYPYAMGWYRQAPGKERELVAGISSSGDSTYYADSVKGRFTISRDNAKNTVYLQMNSLKPEDTAVYYCNADGWYFEYWGQGTQVTVSS	low polyreactivity
QVQLVESGGGLVQAGGSLRLSCAASGLIFYRYAMGWYRQAPGTERELVAVITRSGCNTNYADSVKGRFTISRDNAKNTVYLQMNSLKPEDTEVYYCDTRGIWKKVPYYYWGQGTQVTVSS	low polyreactivity
QVQLVESGGGLVQAGGSLRLSCAASGLIFYRYTMGWYRQAPGKEREFVAAITAGGSTYYADSVKGRFTISRDNAKNTVYVQMNSLKPEDTAVYYCATLVRLLQYTYIKYDYWGQGTQVTVSS	high polyreactivity
QVQLVESGGGLVQAGGSLRLSCAASGLIFYRYTMGWYRQAPGKERELVAAISWRGTRTYYADSVKGRFTISRDNAKNTVYLQMNSLKPEDTAVYYCTAGYVRRYSPSSSWRYDYWGQGTQVTVSS	high polyreactivity
QVQLVESGGGLVQAGGSLRLSCAASGLIFYSYTMGWYRQAPGKERELVASITWTGGSTYYADSVKGRFTISRDNAKNTVYLQMNSLKPEDTAVYYCAVRVPSSIHIQLDYWGQGTQVTVSS	high polyreactivity
QVQLVESGGGLVQAGGSLRLSCAASGLIFYTYAMGWYRQAPGNERELVADINRSDGSTYYADSVKGRFTISRDNAKNTVYLQMNSLKPEDTAVYYCAVVGPYYSRFGGRYYYWGQGTQVTVSS	low polyreactivity
QVQLVESGGGLVQAGGSLRLSCAASGLIFYVYAMGWYRQAPGKERELVADITYSGGRTYYADSVKGRFTISRDKAKNTVYLQMNSLKPEDTAVYYCAADSVKYGIDPGLPNSDDYWGQGTQVTVSS	low polyreactivity
QVQLVESGGGLVQAGGSLRLSCAASGLIFYYYAMGGYRQAPGTQRELVACITGGDSTNYADSVKGRFTISRDNAKNTVYLQMNSLKPEDTAVYYCAAEFYGSSFGYRTYDYYYWGQGTEVTVSS	low polyreactivity
QVQLVESGGGLVQAGGSLRLSCAASGLIFYYYAMGWYRQAPGKEREFVAAISRRGGSTYYADSVKGRFTISRDNAKNTVYLHMNSLKPEDTAVYYCAAKSGSFVHGGYQTPVYGSDYWGQGTQVTVSS	high polyreactivity
QVQLVESGGGLVQAGGSLRLSCAASGLIFYYYAMGWYRQAPGKERELVAAITSDDRTYYADSVKGRFTISRDNAKNTFYLQMNSLKPEDTAVYYCAARYHGYLPQYRKYGYGYWGQGTQVTVSS	high polyreactivity
QVQLVESGGGLVQAGGSLRLSCAASGLIFYYYAMGWYRQAPGKEREVVAAISSNGGSTYYADSVKGRFTISRDNAKNTVYLQMNSLKPEDTAVYYCAAGYAYYYWTPYYYWGQGTQVTVSS	high polyreactivity
QVQLVESGGGLVQAGGSLRLSCAASGLIFYYYAMGWYRQAPWKEREFVAAISRSGGIKRYADSVKGRFTISRDNAKNTVYLQMNSLKPEDTAVYYCAARYYYRHAQSFPWSNRWSSYYYWGQGTQVTVSS	high polyreactivity
